# Data as given in the supplement of paper PMC11865577.
# Experiments:
# Experiment in all cases: pull-down binding Z-score (relative to library population); higher = stronger binding
# [1] = test system: TO-3-N3 (biotin conjugate); conditions: RNA library: Library-2
# Outline: (§1)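 Biotin-conjugated small molecule (100 pmol) on streptavidin beads was incubated with 1 μg of heat-folded Cy5- or Cy3-end-labelled RNA library in phosphate/NaCl/KCl buffer at 25 °C for 60 min. Following three washes, RNA was eluted with hot SDS and hybridised at 55.5 °C for 20 h to a DNA barcode microarray. The binding value is a Z-score computed from the library mean and standard deviation, after subtraction of beads without compound and averaging of barcoded replicate probes with the highest and lowest excluded.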
# [2] = test system: TO-N3-2 (biotin conjugate); conditions: RNA library: Library-2
# Outline: as §1
# [3] = test system: G-clamp-N3 (biotin conjugate); conditions: RNA library: Library-1 (pre-miRNA loops + repeats)
# Outline: as §1
# TO-N3 (biotin conjugate) = conditions: RNA library: Library-2
# Outline: as §1
# [4] = test system: TO-3-N3-2 (biotin conjugate); conditions: RNA library: Library-2
# Outline: as §1
Sequence,pull-down binding Z-score [1],pull-down binding Z-score [2],pull-down binding Z-score [3],pull-down binding Z-score (TO-N3 (biotin conjugate)),pull-down binding Z-score [4]
UGUAUUUUUCAGCAAGGCAAGGGCUUUGAUGUCUUGUA [hsa-mir-8065],-0.583,-0.0538,-0.314,-0.402,-0.132
UGUCAUUACUUUCAAUGGCA [hsa-mir-548h-2],-0.726,-1.22,0.222,-0.978,-0.4
UGUCAUUACUUUUAACUGUA [hsa-mir-548h-5],1.2,-0.469,-0.935,1.07,0.219
UGUCAUUACUUUUAAUGGUA [hsa-mir-548h-1],-0.328,-1.24,-1.35,-0.56,-0.357
UGUCAUUGAAAGUAAUAGCA [hsa-mir-548h-3],-0.165,-0.319,-1.07,-0.141,-0.0124
UGUCGUAGAAAGUAAUGGCA [hsa-mir-548l],0.0469,-0.387,0.662,-0.189,-0.0955
UGUCUUGUAGCCAGGAUAUUGUUUUAAAGAA [hsa-mir-4668],-0.404,-0.355,-0.739,-0.338,0.00983
UGUCUUGUGUCUGUAAGUAU [hsa-mir-1275],-0.619,-0.00915,-0.561,-0.413,-0.189
UGUCUUUUUUUUUUUCUGAGACA [hsa-mir-1273c],-0.718,-1.36,-0.128,-1.21,0.127
UGUGACCUGGAGCAGCUCAGGAGGGCUUCCUGGGUGAGGUGGCAGGUUACA [hsa-mir-4311],0.566,1.69,2.01,1.08,0.183
UGUGAGAGCUACUAAGUCUUAUA [hsa-mir-8076],0.0311,-0.596,0.772,-0.162,-0.223
UGUGCCCCGUACCGGACAGG [hsa-mir-7160],-0.0418,1.21,-1.03,0.611,-0.0308
UGUGCCUGCCUUCGAAGUGCACGGCAGG [hsa-mir-4297],0.105,0.753,-0.529,0.519,0.00697
UGUGCCUUGCCUUUCCUUUGGCACA [hsa-mir-4438],-0.0269,-0.0304,0.155,-0.0545,-0.183
UGUGGCAGUGGCAGAGGUCGCUACA [hsa-mir-6856],0.436,1.13,1.12,0.704,0.0517
UGUGGCCUGGGGGUUGAGGACCCCUGCUCUA [hsa-mir-645],0.874,2.75,1.32,1.74,0.303
UGUGGCCUUUUUGCCUUUUCUAAAGGCCACAU [hsa-mir-1250],-0.234,-0.551,0.00873,-0.489,-0.241
UGUGGUCACCCACUCU [hsa-mir-4316],-0.237,0.297,-0.668,0.0225,-0.0165
UGUGGUGGGUGGUGGCCUGCGGUGAGCAGGGCCCUCA [hsa-mir-1228],1.6,2.1,0.921,2.36,1.08

Sequence,pull-down binding Z-score [1],pull-down binding Z-score [2],pull-down binding Z-score [3],pull-down binding Z-score (TO-N3 (biotin conjugate)),pull-down binding Z-score [4]
UGUGGUUGGGGCCAUGGCGGGUGGGCAGCCCAGCCUCUGAGCCUUCCU [hsa-mir-1238],2.04,2.37,-0.179,2.76,1.74
UGUGUGCUGAGAAAAUUCACACA [hsa-mir-5580],0.00215,-0.274,-0.421,-0.125,0.149
UGUGUGUACUCACAGCCCCUCACACA [hsa-mir-942],-0.301,-0.11,-0.624,-0.432,-0.262
UGUGUGUCGCUCCGGGUCCACG [hsa-mir-574],0.0307,1.25,0.438,0.516,-0.0762
UGUGUUCAGUGGAACCAAGGUAAACACA [hsa-mir-624],1.29,1.22,1.58,1.56,0.95
UGUUAAGGCAUGUUCAGGAACA [hsa-mir-1265],-0.0763,0.652,2.1,0.28,0.401
UGUUAGUGUUCAAGUCUACA [hsa-mir-4802],-0.747,-0.255,0.156,-0.509,-0.398
UGUUCACUUUCUAUAUGAUGAAUA [hsa-mir-656],-1.09,-1.7,-0.48,-1.4,-0.523
UGUUCAGUGGGAUUUGGAGA [hsa-mir-8061],0.542,0.449,-0.118,0.645,0.152
UGUUCAUGUCUCUCUGUGCACAGGGGACGAGAGUCA [hsa-mir-4420],-0.612,0.762,0.39,-0.35,-0.232
UGUUCAUUCACAUGAUCAUAAGUGGACA [hsa-mir-4643],0.535,-0.251,0.373,0.388,0.169
UGUUCGCUUUAUUUAUGAUGAAUCA [hsa-mir-539],-0.769,-1.01,0.0951,-0.916,-0.121
UGUUCGUUUUGCUCAUGUCGAAUC [hsa-mir-487b],-0.794,-0.133,-0.817,-0.701,-0.391
UGUUGACUGAAUAAUAAACA [hsa-mir-3139],-0.946,-0.846,-1.29,-1.23,-0.319
UGUUGAGCGCAGUAAGACAACA [hsa-mir-3529],-0.51,-0.0925,0.892,-0.482,-0.0511
UGUUGGCAGCCCAAGAUGACA [hsa-mir-4686],0.375,0.58,-0.568,0.581,-0.0148
UGUUGGGGGGACA [hsa-mir-4262],2.24,0.707,-0.216,1.67,1.63
UGUUGGUUGAAGAUGCCUUUCAACA [hsa-mir-552],-0.807,-0.598,0.0946,-0.937,-0.396
UGUUUAACUCCUCUCCACGUGAACA [hsa-mir-499a],0.828,0.116,-0.0505,0.731,-0.0532
